In paper PMC13458767, “C-terminal lysine residues localise NLRP10 at lipid droplets and govern NLRP10 oligomer formation” (EMBO Reports, 2026):

Tests used:
[1] = target: human NLRP10ΔHD2–tail (aa 4–482), MBP-tagged recombinant protein (human) (UniProt Q86W26); test: SEC-MALS; MBP-NLRP10 (4–482) at several concentrations; molecular weights determined; no methods told for the SEC-MALS
[2] = target: the molecule itself; test: SEC; Superose 6 Increase 10/300 GL or Superdex 200 Increase 10/300 GL; 25 mM Tris pH 7.5, 300 mM NaCl, 5 mM ß-ME, 5% glycerol; peak 1 (void) and peak 2 collected

stoichiometry N [1] | Molecule | binding result [2]
2 | human NLRP10ΔHD2–tail (aa 4–482), MBP-tagged recombinant protein (from UniProt Q86W26 4-482) (domain or fragment) | –
– | human NLRP10 (aa 4–655), MBP-tev-tagged recombinant protein (natural protein, UniProt Q86W26 4-655, looked up, MBP is followed by a tev site; no cleavage step is described in the methods; also called NLRP10 (4–655); wild-type NLRP10) AKARKPREALLWALSDLEENDFKKLKFYLRDMTLSEGQPPLARGELEGLIPVDLAELLISKYGEKEAVKVVLKGLKVMNLLELVDQLSHICLHDYREVYREHVRCLEEWQEAGVNGRYNQVLLVAKPSSESPESLACPFPEQELESVTVEALFDSGEKPSLAPSLVVLQGSAGTGKTTLARKMVLDWATGTLYPGRFDYVFYVSCKEVVLLLESKLEQLLFWCCGDNQAPVTEILRQPERLLFILDGFDELQRPFEEKLKKRGLSPKESLLHLLIRRHTLPTCSLLITTRPLALRNLEPLLKQARHVHILGFSEEERARYFSSYFTDEKQADRAFDIVQKNDILYKACQVPGICWVVCSWLQGQMERGKVVLETPRNSTDIFMAYVSTFLPPDDDGGCSELSRHRVLRSLCSLAAEGIQHQRFLFEEAELRKHNLDGPRLAAFLSSNDYQLGLAIKKFYSFRHISFQDFFHAMSYLVKEDQSRLGKESRREVQRLLEVKEQEGNDEMTLTMQFLLDISKKDSFSNLELKFCFRISPCLAQDLKHFKEQMESMKHNRTWDLEFSLYEAKIKNLVKGIQMNNVSFKIKHSNEKKSQSQNLFSVKSSLSHGPKEEQKCPSVHGQKEGKDNIAGTQKEASTGKGRGTEETPKNTYI | binds
– | Walker A mutant human NLRP10 (aa 4–655 K179A), MBP-tev-tagged recombinant protein (natural protein, UniProt Q86W26 4-655, looked up, NLRP10, human, residues 4-655, Walker A mutant K179A; MBP is followed by a tev site; no cleavage step is described in the methods; also called NLRP10 K179A; K179A mutant) AKARKPREALLWALSDLEENDFKKLKFYLRDMTLSEGQPPLARGELEGLIPVDLAELLISKYGEKEAVKVVLKGLKVMNLLELVDQLSHICLHDYREVYREHVRCLEEWQEAGVNGRYNQVLLVAKPSSESPESLACPFPEQELESVTVEALFDSGEKPSLAPSLVVLQGSAGTGATTLARKMVLDWATGTLYPGRFDYVFYVSCKEVVLLLESKLEQLLFWCCGDNQAPVTEILRQPERLLFILDGFDELQRPFEEKLKKRGLSPKESLLHLLIRRHTLPTCSLLITTRPLALRNLEPLLKQARHVHILGFSEEERARYFSSYFTDEKQADRAFDIVQKNDILYKACQVPGICWVVCSWLQGQMERGKVVLETPRNSTDIFMAYVSTFLPPDDDGGCSELSRHRVLRSLCSLAAEGIQHQRFLFEEAELRKHNLDGPRLAAFLSSNDYQLGLAIKKFYSFRHISFQDFFHAMSYLVKEDQSRLGKESRREVQRLLEVKEQEGNDEMTLTMQFLLDISKKDSFSNLELKFCFRISPCLAQDLKHFKEQMESMKHNRTWDLEFSLYEAKIKNLVKGIQMNNVSFKIKHSNEKKSQSQNLFSVKSSLSHGPKEEQKCPSVHGQKEGKDNIAGTQKEASTGKGRGTEETPKNTYI | binds
